In this assay the target is flag-tagged paxillin (UniProt P49023 1-591). Description: BLI. (In general: Biolayer interferometry detects binding as a change in optical thickness at a sensor tip.)
Sequence of flag-tagged paxillin (P49023 whole entry): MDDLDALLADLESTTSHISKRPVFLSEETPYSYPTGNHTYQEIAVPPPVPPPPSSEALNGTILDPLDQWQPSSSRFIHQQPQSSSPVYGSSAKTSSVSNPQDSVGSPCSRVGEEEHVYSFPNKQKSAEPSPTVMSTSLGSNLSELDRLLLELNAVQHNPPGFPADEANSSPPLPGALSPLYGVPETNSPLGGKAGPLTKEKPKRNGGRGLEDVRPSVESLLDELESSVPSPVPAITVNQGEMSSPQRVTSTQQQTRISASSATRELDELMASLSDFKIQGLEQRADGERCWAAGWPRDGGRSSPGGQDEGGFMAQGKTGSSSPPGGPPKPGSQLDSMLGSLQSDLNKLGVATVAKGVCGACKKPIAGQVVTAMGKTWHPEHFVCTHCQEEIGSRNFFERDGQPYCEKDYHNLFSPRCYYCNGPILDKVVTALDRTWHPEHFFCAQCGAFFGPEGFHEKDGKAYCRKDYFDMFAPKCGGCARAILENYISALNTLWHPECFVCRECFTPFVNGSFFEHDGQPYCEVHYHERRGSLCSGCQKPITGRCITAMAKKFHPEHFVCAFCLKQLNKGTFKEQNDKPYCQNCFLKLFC

B1: GST-fused PH domain of kindlin-1 (374–496) (domain or fragment, UniProt Q9BQL6 374-496, looked up)
chain: DNLKLFRPKKLLPKAFKQYWFIFKDTSIAYFKNKELEQGEPLEKLNLRGCEVVPDVNVAGRKFGIKLLIPVADGMNEMYLRCDHENQYAQWMAACMLASKGKTMADSSYQPEVLNILSFLRMK
What is called Kd is a measure of binding affinity in units of concentration. Read a low Kd as higher affinity. Regarding B1, binding was characterised by a dissociation constant (Kd) of 14.2 µM.

B2: GST-fused PH domain of kindlin-3 (351–476) (domain or fragment, UniProt Q86UX7-2 351-476, looked up)
chain: ELKDHLRIFRPRKLTLKGYRQHWVVFKETTLSYYKSQDEAPGDPIQQLNLKGCEVVPDVNVSGQKFCIKLLVPSPEGMSEIYLRCQDEQQYARWMAGCRLASKGRTMADSSYTSEVQAILAFLSLQ
The molecule B2 registered a Kd of 7.6 µM.

B3: GST-fused PH domain of kindlin-2 (374–499) (domain or fragment, UniProt Q96AC1 374-499, looked up)
chain: ELADYIKVFKPKKLTLKGYKQYWCTFKDTSISCYKSKEESSGTPAHQMNLRGCEVTPDVNISGQKFNIKLLIPVAEGMNEIWLRCDNEKQYAHWMAACRLASKGKTMADSSYNLEVQNILSFLKMQ
B3 displayed a Kd of 23.5 µM.

The values above are taken from paper PMC9080902 (Journal of thrombosis and haemostasis : JTH, 2021).
